This note sets out measurements from the DeepSol protein solubility set.

The nature of this data set: soluble on expression in E. coli; label from the status in PepcDB or PDB records.
As for “MSSPPPARSGFYRQEVTKTAWEVRAVYRDLQPVGSGAYGAVCSAVDGRTGAKVAIKKLYRPFQSELFAKRAYRELRLLKHMRHENVIGLLDVFTPDETLDDFTDFYLVMPFMGTDLGKLMKHEKLGEDRIQFLVYQMLKGLRYIHAAGIIHRDLKPGNLAVNEDCELKILDFGLARQADSEMTGYVVTRWYRAPEVILNWMRYTQTVDIWSVGCIMAEMITGKTLFKGSDHLDQLKEIMKVTGTPPAEFVQRLQSDEAKNYMKGLPELEKKDFASILTNASPLAVNLLEKMLVLDAEQRVTAGEALAHPYFESLHDTEDEPQVQKYDDSFDDVDRTLDEWKRVTYKEVLSFKPPRQLGARVSKETPL”, the “soluble on expression in E. coli” value is “soluble”.
The same measure for “MSSQLNHGTLPKISIVTPSYNQAQYLEATMRSILDQGYPDLEYIVMDGGSTDGSTEIIQKYSDRLTYWESAPDKGQADAIFRGFERATGEIFCYVNSDDLLLPGSLEMVGRWFREHPDEEWVVGGTILIDGLGIPIIRSRRGLPEADLGVKVTFKRLLLHNCGGFHQPASFWRRSAFEQAGGFDRTLRFCFDYDLFFRLAKRRPSGRIRSFLAAFRYHPASKTSTLESVFREENETLWRRYGRYLYSENQIRNFAHKQTTRDMWNNRIIKLGFYLKILNVSNAIGSLEHHHHHH”: “not soluble”.
The same measure for “MSSSDTFEKLYIEQHDAPSEEQVEEWLATGEVLKLEQIVLDGRGHMLREKKTVNASSNEFLSGLTQYLTKIDAIHKAVEEGDVRRVKSLIDRPLLSTARDNYGMTPIHKALLHGQTNTVRFLLGRFPSCVNATDHRIFGILVDSVSNGVFNKSPLKKNAGRTPLHYAAADPNGEHMIKVLQKSGGDAFIEDKHGHTPFYYRTHGQRLNVRSMKDNAVMNQLISGQLSRPLLQDLEEDIYDWIHTGNIGKLEELVLTGYADLLLGRNHEVDDADSIGFLEVLPQYQAKIQSIHKAVETGNLRAVKLLTDRKKLSLCRDTRGLSPLHKAIVFERTDIAKYLIRNYPQSVNAMDQKKRTPLHYAAALKDGGYLYKVMRKSGADPNIYDCNGRPAKYYLKHTGEIDLSAMRLDTRAALKQVLHNRVAPSYLESSIQQWLRDGQLAKLEQLVLSGCGDLLQSRTSTHTETQAFLDRLPDYMDKIDGIHKSIKEGNLDKVKELMKTKKLAIARDRFGCTPLHSAVVHEHTEIVRYIAGHYNSVLNAPDYNKRTAMHYAAAARDGGHYLKILGKAGADPMAVDNEGRTPDYYRRNAVIDLKLIKDRDEDFETINEEYLEDGPLIDSPATPDSGSEGSFIDSARMLDDEDESIERHRFEKAFRGKIDLPTSENGVYLARTVAPVLTKALAEVLLRRPADPIGFIAEWLSKYVVEIPRHNGSH”: “not soluble”; for “MSSSQELRSNFYREKNLMETVFDALKAMGKATSIELAARLDISREEVLNELWELKKAGFVDKSAYTWRVADNNVQQEQPAQAELPEEITTATVAKISECDLTATIEQRGPQTADELATLFGTTSRKVASTLAMAISKGRLIRVNQGGKFRYCIPGDNLPAEPKAASVSPLWLSASSSACHGVLIITVITPSPTKNSATKMPENLEHHHHHH”: “not soluble”.
The same measure for “MSSSRNFDLEYDDYKERRNAAGMGSRASSRNGGRFKPIDKEKEKEKKEIGDYGLPKNEYKMQGYDERSSDVGADPLASVRTLRNNLRVMSLEHRDKDEPVKSHLCQSACDDLSKAEKQLVDLSHKRSDAVVRGDSRQAEQIAKDMDRVKSDAIRNAYSDLMMEDGTMKAFGVNSKWTPDKNPMPSDDWKPMTPMKPRKRAETPKGRKTESRQSNRGNNDNGDQRMTSKATTRSPERRVIPTEPSKPKTTRKNQRLSTIGHVPEAIPVVDTPLPGGSTVQDDPYKMPTYVGRCPHCQLTESGLGRAGGMEKHFAKYCKVMTSCKYCMKLTMVSQLTDHLIYRCEFLQDTMEACNDCGLAIEKEDQKRGGSHPMCRGRRPPTGAQWCPLCTIAVEDNEENWREHLLNNCYNNQRRDGPEKDPWEMKQEQEDILLGAKEKKKREMEEEERLKKEAEIRRQQQQVVVNNTGYPGKMIDADKLVVALQEIQERKKAEKKKKLKDIEKET”: “not soluble”; for “MSSTAEEMAAAFEQTGGPDLTTGSGKRTKSDRVEHKHASQPGGDTRKVVQTASNGEAKRKEK”: “not soluble”; for “MSSTPSLSHSPAELYRAWQDLRAERPQLRARDAAALLQVSEGELVASRVGIDAVRLRPDWAALLPALGELGPIMALTRNEHCVHERKGPYREVTVSANGQMGLVVSPDIDLRLFLGGWNAVFAIAEETARGTQRSIQVFDQQGVAVHKVFLAEASDVRAWEPLVERLRAAEQDAVLALHEPRAPAAALVDAQIDAAALREGWAALKDTHHFHALLKKHGAQRTQALRLAGGEWAERLDNGDLAKLFEAAAESGLPIMVFVGNAHCIQIHTGPVCNLKWLDDWFNVLDPEFNLHLKTTGIAELWRVRKPSTDGIVTSWEAFDADGELIVQLFGARKPGEPERDDWRELAESFKAL”: “not soluble”.
Regarding “MSSVERYLSQLVKTEPQLETLKELYIGKKWHQLTEELLKLIHSGQVNRINLVELYDSFIREFESSLNPLALVRILVGIARKNYRDLNKALEFVDYATNSKAFISADEEASLFLKSETARLKLEGGNLSGVKQILEEVGVAMESTRDLDTVVHSSYHRVCAQYYKAVGPATKYYSSALLFFQYAPLDSFTVEERVHWAYDLGVASIVAETIFNFGEILEYDIMQSLKSEKLQWLLELLEAFKYGSIEKFNQIGNRARDQINQEPALSSNWQFLEQKIRLRSLMELATKKLVERVISFDDICSSCEVTKDQVEYLVMKALSLHLLQGTINEMDETVSISYVQPKTLDRNEVEGLYNRLIPWKTHVHEIALSLERSTEADLAQAQN”, the “soluble on expression in E. coli” value is “soluble”.
For the sequence “MSSVGDFEEIILHDLKPYYHVPGAIHSEGITFVKETGTLLWVDIFKGEVHKVEDIEQPESSHSFFSISRANYGKNASIEYPPNPDELKESVGCIFPILDGASQNEIKQVLFGSKFGIGKLDFSKSEWEYVILYSECPELSTDRAYKLRSNDGNVSPDGKYIYVGLMSDFPFDLEPIGCLLRVDLLAHKIELVWNCLLIPNAIHWDESDQKTMYVTDSLNFTIWKCPGGDLLKRDELIDVKNSNNQSFESPEPDGSAIWFSKDGKHSGFLFITVWSTSKVQMFDLTNGKLLKEFILPEQTPRVSCCCFVGKDLFVTTANAEINDAVRTNTDKNGGCIYKIPNVLDGNVPLESTKRQPLH”, the “soluble on expression in E. coli” value is given as “soluble”.
The same measure for “MSSVYTMKRIWLQKDKKAYQAWRELMEKAELQTTEALDYTVGIYDDTALIASGSLSGKTIKCVAVCKKYQSENLLTQLVVHLLEKLREENQLHSFLYTKPKNEQIFQSLGFQKVVANQEVLFMEQGKPDFADYLGYLTQHKKAGPASSIVMNANPFTKGHQYLVEKAAQESPHVYVFVLSEDKSLFSKEARFAMVQKGVAHLPNVTVLSTEDYLVSSATFPTYFLKEKAPLEVAAIQATLDATLFKERIAPILEIQQRYVGEEPYSEVTAVYNQAMQQVFGQTITLTIVPRLASDGELISATKVRKAMAEGDKETLKKFLPATSYQYLVEHKKLMR”: “not soluble”; for “MSTDVAAAQAQSKIDLTKKKNEEINKKSLEEDDEFEDFPIDTWANGETIKSNAVTQTNIWEENWDDVEVDDDFTNELKAELDRYKRENQ”: “soluble”.
The same measure for “MSTFFQQTAQAMIAKHIDRFPLLKLDQVIDWQPIEQYLNRQKTRYLRDHRGRPACPLLSMFKAVLLGQWHNLSDPELEHSLITRIDFNLFCRFDELSIPDYSTLCRYRNRLAQDDTLSELLELINRQLTEKGLKVEKASAAVVDATIIQTVGSKQRQAIEVDEEGQVSGQTTLSKDKNARWTKKNSLYKLGYKQHTRTDAEGYIEKLHITPANAHECKHLSPLLEGLPEGTTIYADKGYDSAENRQHLEEHQLQDGIMRKACRNRPLTETQTKRNRYLSKTRYVVEQSFGTLHRKFRYARAAYFGLICARCRLKGSPDA”: “not soluble”; for “MSTFFRQTAQAMIAKHINRFPLLKLDQVIDWQPIEQYLNRQKTRYLRDHRGRPAYPLLSMFKAVLLGQWHSLSDPELEHSLITRIDFNLFCRFDELSIPDYSTLCRYRNWLAQDDTLSELLELINCQLTEKGLKVEKASAAVIDATIIQTAGSEQRQAIEVDEEGQISGQTTPSKDSDARWIKKNGLYKLGYKQHTRTDAEGYIEKLHITPANAHECKHLSPLLEGLPEGTTVYADKGYDSAENRQHLEEHQLLDGIMSKACRNRPLSEVQTKRNRYLSKTRYSGLNLNQDKATKPQTVQIVRQGEATPYWFKFNPLYVVEQSFGTLHRKFRYARAAYFGLIKVSAQSHLKAMCLNLLKAANRLSAPAAA”: “not soluble”; for “MSTKPEKPIWMSQEDYDRQYGSITGDESSTVSKKDSKVTANAPGDGNGSLPVLQSSSILTSKVSDLPIEAESGFKIQKRRHERYDQEERLRKQRAQKLREEQLKRHEIEMTANRSINVDQIVREHYNERTIIANRAKRNLSPIIKLRNFNNAIKYMLIDKYTKPGDVVLELGCGKGGDLRKYGAAGISQFIGIDISNASIQEAHKRYRSMRNLDYQVVLITGDCFGESLGVAVEPFPDCRFPCDIVSTQFCLHYAFETEEKARRALLNVAKSLKIGGHFFGTIPDSEFIRYKLNKFPKEVEKPSWGNSIYKVTFENNSYQKNDYEFTSPYGQMYTYWLEDAIDNVPEYVVPFETLRSLADEYGLELVSQMPFNKFFVQEIPKWIERFSPKMREGLQRSDGRYGVEGDEKEAASYFYTMFAFRKVKQYIEPESVKPN”: “soluble”.
Regarding “MSTNEAAASQEDIALAQGAVLVKSCQVPDGSIPIRGFDFSTASGPDFSLSAILSSYMSTGFQATHLAQAIQQVNQMLSLRDTPLTCDDDEKLFPYPEGRQKRSCTIFLGYTSNLVTSGLREVLRYCVQRNLVDCIVTSAGGIEEDLIKCLKPSYLGTFTMDGAKLRSNGMNRAGNVLIPNDNYCAFEDWLMPILDECLVEQEEKHLNWTPSKLIQRLGERIGDESSILYWAAKHRIPVFCPALTDGSLGDMLYFHSVKSSPGLRVDIVEDVRHINTIAVKSFKTGSIILGGGVVKHHINNANLMRNGADHTVYINTGQEFDGSDSGAQPDEAVSWGKVKPSAGAVKVHAEATLVFPLLVAETFAKHEGHKD”, the “soluble on expression in E. coli” value is listed as “not soluble”.
The same measure for “MSTRLCEPSLRDDGAQRGTPASHGKWCDTGAFKLDETPSPVVANVSSTSDASFQFNRTPSPGKHQNHAADRSMWSLDDFVIIRKLDEGRFGKVYLAREKQSKCAVVLKCISKDMIRFHSLAHQLQREVELQEYAGRYHKNVLRLFAYFWDDVRIVLVLEYADSGTLQDLLDCYREKEQRSSLPDDKVRTILLQLLSALAFLHERDIIHRDVKPDNILFHGEKLLLADFSWAVRVNNSDPRYCRRHTVCGTLDYLAPEQVLKRGCTTKADLWAVGVVAYRMLCGFLPFEMLDARDVCSCIASGAIRYPSQLSPTARHFLQGLLRVDEALRFSCQEALNHPFMRGDCNCRISNRYIESKHRARAEEPVLQHQGSFDTTKNGTRWIQQKKESWCCSRAPTLNVPEPVHHTGTNCVANHSHNHKDMDKSTTLSCPSASDIVRVRATTERVRCPVDDYSGTSASLITISPLRSTECMQSLSNVSTPSIVSQTHSEWLHSASPISHTPVVAAAATSKCSRDDVGTSSYGVSYSGIRLHNSASDGSGTTTGQHHAQLGTSTHSSFAFAPPTSARYRRDISGYHRINGRGSSPSDHEEYEVASCALRLCFDDEDDADNNCSGALHAAASNRPKTLKSGVMMNGTAPPSHHKGSSYDVR”: “not soluble”.
The same measure for “MSTSADYKINQQQIVCVASFLSKEGKTEALIAALASLIPDTRREAGCIRYELNVSRDEPRRVTFVEKFVDIAAFDEHCAKDAIQHYFHQVMPELVESFHVETYHQVIA”: “soluble”; for “MSTTIQYNSNYADYSISSYLREWANNFGDIDQAPAETKDRGSFSGSSTLFSGTQYAIGSSHSNPEGMIAEGDLKYSFMPQHTFHGQIDTLQFGKDLATNAGGPSAGKHLEKIDITFNELDLSGEFDSGKSMTENHQGDMHKSVRGLMKGNPDPMLEVMKAKGINVDTAFKDLSIASQYPDSGYMSDAPMVDTVGVVDCHDMLLAA”: “not soluble”.
